Experimental data: PMC8809517, “Cofactor-independent RNA editing by a synthetic S-type PPR protein”

T1: GFP-9S library array, motif 4 ND N98F;D124F (synthetic construct, N98F;D124F)
T1 chain: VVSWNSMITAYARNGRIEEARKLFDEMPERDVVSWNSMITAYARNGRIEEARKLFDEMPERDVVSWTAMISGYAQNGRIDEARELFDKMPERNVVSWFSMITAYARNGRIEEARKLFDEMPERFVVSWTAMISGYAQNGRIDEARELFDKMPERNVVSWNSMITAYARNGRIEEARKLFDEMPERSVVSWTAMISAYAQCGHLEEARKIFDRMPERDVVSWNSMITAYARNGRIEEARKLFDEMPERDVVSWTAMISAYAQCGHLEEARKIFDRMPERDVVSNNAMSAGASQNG

T2: GFP-9S library array, motif 4 ND N98T;D124T (synthetic construct, N98T;D124T)
T2 chain: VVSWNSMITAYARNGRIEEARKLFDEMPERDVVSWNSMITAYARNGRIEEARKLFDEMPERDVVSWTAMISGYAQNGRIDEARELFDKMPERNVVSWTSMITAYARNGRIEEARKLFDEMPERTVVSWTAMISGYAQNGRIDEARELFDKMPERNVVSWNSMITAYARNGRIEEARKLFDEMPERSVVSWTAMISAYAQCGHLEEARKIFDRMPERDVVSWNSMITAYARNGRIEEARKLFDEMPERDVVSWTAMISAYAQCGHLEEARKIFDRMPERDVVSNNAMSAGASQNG

T3: GFP-9S library array, motif 4 ND N98S;D124G (synthetic construct, N98S;D124G)
T3 chain: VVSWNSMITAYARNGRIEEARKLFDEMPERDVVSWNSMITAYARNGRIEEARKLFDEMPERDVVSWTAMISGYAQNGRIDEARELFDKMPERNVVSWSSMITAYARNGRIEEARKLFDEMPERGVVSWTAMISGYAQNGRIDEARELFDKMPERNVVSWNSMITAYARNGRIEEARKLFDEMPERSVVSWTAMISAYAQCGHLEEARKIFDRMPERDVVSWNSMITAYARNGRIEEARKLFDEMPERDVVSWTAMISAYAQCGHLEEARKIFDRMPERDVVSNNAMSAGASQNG

T4: GFP-9S library array, motif 4 ND N98D;D124A (synthetic construct, N98D;D124A)
T4 chain: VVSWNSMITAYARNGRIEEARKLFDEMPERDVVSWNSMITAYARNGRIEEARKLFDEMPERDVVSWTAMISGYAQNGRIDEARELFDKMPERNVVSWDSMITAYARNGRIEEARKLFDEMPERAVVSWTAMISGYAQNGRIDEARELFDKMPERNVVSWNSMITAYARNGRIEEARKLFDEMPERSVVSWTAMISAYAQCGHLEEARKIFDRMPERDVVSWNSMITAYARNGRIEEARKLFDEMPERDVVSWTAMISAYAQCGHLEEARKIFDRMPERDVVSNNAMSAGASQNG

T5: GFP-9S library array, motif 4 ND N98A;D124R (synthetic construct, N98A;D124R)
T5 chain: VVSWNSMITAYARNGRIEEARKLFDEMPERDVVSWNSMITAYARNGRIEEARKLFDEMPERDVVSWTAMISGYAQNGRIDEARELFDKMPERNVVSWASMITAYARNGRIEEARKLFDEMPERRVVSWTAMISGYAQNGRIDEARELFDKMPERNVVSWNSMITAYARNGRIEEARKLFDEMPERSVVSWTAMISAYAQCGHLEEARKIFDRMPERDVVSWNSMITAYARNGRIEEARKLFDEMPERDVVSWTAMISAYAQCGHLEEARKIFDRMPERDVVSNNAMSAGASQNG


Key:
Experiment in all cases: high-throughput RNA pulldown from lysate on Ni-NTA beads; HRP: 50 mM Tris pH 8, 150 mM NaCl, 1 mM beta-mercaptoethanol, 50 ug/ml BSA, 3 ug/ml yeast RNA, 0.5% heparin; ITC and FP: Tris pH 8, 200 mM KCl, 5% glycerol; MST: 50 mM Tris pH 8, 200 mM NaCl, 1 mM DTT, BSA, heparin, 0.05% Tween 20
Details in all cases: tags: N-terminal His-eGFP
[1] = biological target: T1, GFP-9S library array, motif 4 ND …
[2] = biological target: T2, GFP-9S library array, motif 4 ND …
[3] = biological target: T3, GFP-9S library array, motif 4 ND …
[4] = biological target: T4, GFP-9S library array, motif 4 ND …
[5] = biological target: T5, GFP-9S library array, motif 4 ND …

Binder | Kd ([1]; label: 5' IRDye 800CW) [nM] | Kd ([2]; label: 5' IRDye 800CW) [nM] | Kd ([3]; label: 5' IRDye 800CW) [nM] | Kd ([4]; label: 5' IRDye 800CW) [nM] | Kd ([5]; label: 5' IRDye 800CW) [nM] | Kd ([1]; label: 5' Cy5) [nM] | Kd ([2]; label: 5' Cy5) [nM] | Kd ([3]; label: 5' Cy5) [nM] | Kd ([4]; label: 5' Cy5) [nM] | Kd ([5]; label: 5' Cy5) [nM]
AUUAUACGUGA (ssRNA) [IR-rpoA-U] | 140 | 63.1 | 182 | 174 | 160 |  |  |  |  | 
AUUACACGUGA (ssRNA) [Cy5-rpoA] |  |  |  |  |  | 76.4 | 83.1 | 181 | 103 | 178
AUUAAACGUGA (ssRNA) [IR-rpoA-A] | 200 | 18.3 | 122 | 233 | 254 |  |  |  |  | 
AUUAGACGUGA (ssRNA) [Cy5-rpoA-G] |  |  |  |  |  | 92.1 | 81.4 | 157 | 114 | 166
